The results in this text go back to patent US20180030144A1 (INNATE PHARMA, published 2018).

Sequences and labels used below:
T1: human CD73 expressed at the cell surface (human, UniProt P21589 27-549)
T1 construct: GPI-anchored dimer on cells; also called huCD73; cellular CD73
T1 sequence: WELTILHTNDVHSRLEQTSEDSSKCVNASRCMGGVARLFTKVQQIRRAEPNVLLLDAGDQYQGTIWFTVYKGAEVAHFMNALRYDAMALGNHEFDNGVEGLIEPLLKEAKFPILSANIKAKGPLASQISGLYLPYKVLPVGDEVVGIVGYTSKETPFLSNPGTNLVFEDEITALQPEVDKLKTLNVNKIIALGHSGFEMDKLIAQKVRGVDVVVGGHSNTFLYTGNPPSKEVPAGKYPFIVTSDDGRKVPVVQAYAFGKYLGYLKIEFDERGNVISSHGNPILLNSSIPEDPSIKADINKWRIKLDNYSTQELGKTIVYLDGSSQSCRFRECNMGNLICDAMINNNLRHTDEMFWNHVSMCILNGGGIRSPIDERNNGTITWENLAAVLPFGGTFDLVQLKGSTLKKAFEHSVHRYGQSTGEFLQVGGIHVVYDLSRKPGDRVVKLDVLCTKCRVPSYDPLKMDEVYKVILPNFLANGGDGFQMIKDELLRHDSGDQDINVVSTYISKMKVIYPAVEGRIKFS

T2: human CD73 mutant 17 (human, UniProt P21589 27-549)
T2 construct: Transfected in HEK293T cells
T2 chain: T1 sequence with A73S, E103A, K107A, E108N, A109S, K110A

T3: human CD73 mutant 19 (human, UniProt P21589 27-549)
T3 construct: Transfected in HEK293T cells
T3 chain: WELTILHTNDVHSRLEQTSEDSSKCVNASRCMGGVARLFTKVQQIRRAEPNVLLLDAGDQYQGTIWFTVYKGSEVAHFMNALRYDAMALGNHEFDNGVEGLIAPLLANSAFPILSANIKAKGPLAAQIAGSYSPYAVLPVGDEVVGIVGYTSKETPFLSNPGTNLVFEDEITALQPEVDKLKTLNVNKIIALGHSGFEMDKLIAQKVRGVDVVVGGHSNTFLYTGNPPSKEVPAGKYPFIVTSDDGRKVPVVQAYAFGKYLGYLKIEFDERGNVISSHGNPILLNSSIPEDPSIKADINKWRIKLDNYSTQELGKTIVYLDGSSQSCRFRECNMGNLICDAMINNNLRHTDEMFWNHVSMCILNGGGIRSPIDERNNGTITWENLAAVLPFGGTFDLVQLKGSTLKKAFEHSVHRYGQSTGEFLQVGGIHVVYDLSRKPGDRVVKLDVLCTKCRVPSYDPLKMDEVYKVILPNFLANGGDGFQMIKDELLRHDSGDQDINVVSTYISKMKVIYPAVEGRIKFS

T4: human CD73 mutant 18 (human, UniProt P21589 27-549)
T4 construct: Transfected in HEK293T cells
T4 chain: T3 chain with A81S, R83A, A126S, A129S

B1: antibody 11E1 (antibody, human IgG1, V domains shown)
VH: EIQLQQSGPELVKPGASVKVSCKASGYAFTSYNMYWVKQSHGKSLEWIGYIDPYNGGTSYNQKFKGKATLTVDKSSSTAYMHLNSLTSEDSAVYYCARGYGNYKAWFAYWGQGTLVTVSA
VL: DAVMTQTPKFLLVSAGDRVTITCKASQSVTNDVAWYQQKPGQSPKLLIYYASNRYTGVPDRFTGSGYGTDFTFTISTVQAEDLAVYFCQQDYSSLTFGAGTKLELK
notes: Produced as chimeric human IgG1 with heavy chain N297Q (Kabat EU numbering); also called 1E11
B2: antibody 3C12 (antibody, human IgG1, V domains shown)
VH: B1 VH with E1Q, T30A, Y35N, E46D, T58S, Q62L, K63T, S77T
VL: DVVMTQTPKFLLVSAGDRVTITCKASQSVSNDVAWYQQKPGQSPKLLIYYASTRYTGVPDRFTGSGYGTDFTFTISTVQAEDLAVYFCQQDYSSLTFGAGTKLELKR
notes: Produced as chimeric human IgG1 with heavy chain N297Q (Kabat EU numbering); RTVAAP)
B3: antibody 6E1 (antibody, human IgG1, V domains shown)
VH: B1 VH with I2F, S44R, T58S, S85N, G101N
VL: B1 VL with D1S, A2I, V78M
notes: Produced as chimeric human IgG1 with heavy chain N297Q (Kabat EU numbering)

Where a chain is given by its changes, count along the chain named. Numbers in names are those of the source.

A word on the EC50 (read off the curve): it is the concentration giving half of the maximal effect.

The first test addresses T1, human CD73 expressed at the cell surface. The test can be described thus: flow cytometry titration on MDA-MB-231 cells (endogenous CD73), median of fluorescence. As to the method:
MDA-MB-231 cells are available from ATCC (reference HTB-26). 10⁵ cells resuspended in PBS/0.2% BSA/0.02% NaN3 (named “staining buffer”) are distributed into round bottom 96W-microplates. Dose-range of anti-CD73 antibodies was added to the plates and cells are incubated for 45 min at 4° C. Cells were washed three times in staining buffer by spinning plates at 400 g for 3 min at 4° C. PE-coupled goat anti-mouse or goat anti-human IgG Fc fragment secondary antibodies (Beckman Coulter) diluted in staining buffer were added to the cells and plates are incubated for 30 additional minutes at 4° C. Cells were washed three times as described above and analyzed on an Accury C6 flow cytometer equipped with an HTFC plate reader.
Median of fluorescence vs. antibodies concentration was plotted on graphs and EC50 is calculated using Graph Pad Prism program.
(In general: In flow cytometry, cells or beads pass a laser one at a time.)
For B1, the concentration giving a half-maximal response (EC50 (read off the curve)) is around 0.1 µg/mL.
B2: the concentration giving a half-maximal response (EC50 (read off the curve)) is around 0.07 µg/mL.
Take B3: the 50% effective concentration (EC50 (read off the curve)) is around 0.1 µg/mL.

Another test has the same target. The test can be described thus: flow cytometry titration on a human-CD73-expressing recombinant host cell line, median of fluorescence.
As for B1, the half-maximal effective concentration (EC50 (read off the curve)) was around 0.4 µg/mL.
Take B2: the “EC50 (read off the curve)” value was around 0.6 µg/mL.
Turning to B3, the concentration giving a half-maximal response (EC50 (read off the curve)) was around 0.4 µg/mL.

For another test the target is unchanged. The test can be described thus: cell-based or functional assay.
Regarding B1, the “EC50 for neutralization of the enzymatic activity of cellular CD73 (MDA-MB-231 cells, free phosphate from AMP)” value amounted to 0.195 µg/mL.
On the same count and under the same terms, under B2 stands 0.21 µg/mL.
For B3, the “EC50 for neutralization of the enzymatic activity of cellular CD73 (MDA-MB-231 cells, free phosphate from AMP)” value stood at 0.209 µg/mL.

Another test addresses T2, human CD73 mutant 17. The test can be described thus: flow cytometry, HEK293T transfectants.
Take B1: the binding result is reported as “no binding”.
Still for that read-out and setting: as for B2, the entry is “no binding”.
For the molecule B3, the binding result is given as “no binding”.

The target of the next test is T3, human CD73 mutant 19. The test can be described thus: flow cytometry, HEK293T transfectants.
B1: the binding result is “no binding”.
The same measure, in the same setting: as for B2, the entry is “no binding”; as for B3, “no binding”.

In a further test the target is T4, human CD73 mutant 18. The test can be described thus: flow cytometry, HEK293T transfectants.
As to B1, the binding result was “no binding”.
Same read-out and setting: under B2 stands “no binding”; under B3, “no binding”.
